Measured values: patent US20200338209A1, “ANTI-B7-H3 ANTIBODIES AND ANTIBODY DRUG CONJUGATES” (AbbVie Inc., priority 2016, published 2020)
Numbering of substitutions follows the chain as printed.

T1: human B7-H3 (4Ig-B7-H3 variant) (Homo sapiens, UniProt Q5ZPR3)
T1 construct: His tag (6xHis) (C)
T1 sequence (Q5ZPR3 with tags, fused parts or gaps): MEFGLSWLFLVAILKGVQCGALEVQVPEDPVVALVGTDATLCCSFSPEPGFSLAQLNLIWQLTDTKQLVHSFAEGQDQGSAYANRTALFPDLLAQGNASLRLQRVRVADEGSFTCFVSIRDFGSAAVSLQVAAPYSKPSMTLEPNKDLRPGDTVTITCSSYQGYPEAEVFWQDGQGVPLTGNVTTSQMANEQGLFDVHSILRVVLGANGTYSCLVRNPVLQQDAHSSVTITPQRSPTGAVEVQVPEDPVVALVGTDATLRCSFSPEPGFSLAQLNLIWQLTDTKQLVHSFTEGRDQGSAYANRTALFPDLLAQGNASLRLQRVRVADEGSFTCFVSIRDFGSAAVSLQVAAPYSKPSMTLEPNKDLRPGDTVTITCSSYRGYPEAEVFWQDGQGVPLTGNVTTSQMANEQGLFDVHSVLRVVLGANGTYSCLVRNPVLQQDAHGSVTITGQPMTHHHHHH

B1: Ab4: murine anti-B7-H3 mAbs; mouse hybridoma derived (antibody, V domains shown)
VH: QVQLQQPGAELVKPGASVKLSCKASGYSFTSYWMHWVKQRPGQGLEWIGMIHPNSGSNNYNEKFKSKATLTVDKSSNTAYMQLSSLTSEDSAVYYCARRLGLHFDYWGQGTTLTVSS
VL: DIVMTQSQKFMSTPVGDRVSITCKASQNVGTAVAWYQQKPGQSPKLLIYSASNRYTGVPDRFTGSGSGTDFTLTISNMQSEDLADYFCQQYSSYPYTFGGGTKLEIK
B2: Ab16: mouse hybridoma derived anti-B7-H3 monoclonal antibodies (mAbs) (antibody, V domains shown)
VH: EVKLLESGGGLVQPGGSLKLSCAASGFDFSRYWMSWVRQAPGKGLEWIGEINPDSSTINYTPSLKDKFIISRDNAKNTLYLQMSKVRSEDTALYYCARPGFGNYIYAMDYWGQGTSVTVSS
VL: DIQMTQTTSSLSASLGDRVTINCRASQDISNFLNWYQQKPDGTVKLLIYYTSRLYLGVPSRFSGSGSGTDYSLTISNLEQEDIATYFCQQGNTLPPTFGGGTKLEIK
B3: Ab14: mouse hybridoma derived anti-B7-H3 monoclonal antibodies (mAbs) (antibody, V domains shown)
VH: EVKLVESGGGLVKPGGSLKLSCAASGFTFSSYGMSWVRQTPEKRLEWVATISGGGTNTYYPDSVEGRFTISRDNAKNFLYLQMSSLRSEDTALYYCARHYGSQTMDYWGQGTSVTVSS
VL: DIQMTQSPASLSASVGETVTITCRTSGNIHNYLTWYQQKQGKSPQLLVYNAKTLADGVPSRFSGSGSGTQFSLKINSLQPEDFGSYYCQHFWSIMWTFGGGTKLEIK
B4: Ab13: mouse hybridoma derived anti-B7-H3 monoclonal antibodies (mAbs) (antibody, V domains shown)
VH: DVQLQESGPDLVKPSQSLSLTCTVTGYSITSGYSWHWIRQFPGNKLEWMGYIHSSGSTNYNPSLKSRISINRDTSKNQFFLQLNSVTTEDTATYYCAGYDDYFEYWGQGTTLTVSS
VL: DIVMTQSQKFMSTSVGDRVSVTCKASQNVGFNVAWYQQKPGQSPKALIYSASYRYSGVPDRFTGSGSGTDFTLTISNVQSEDLAEYFCQQYNSYPFTFGSGTKLEIK
B5: Ab12: murine anti-B7-H3 mAbs; mouse hybridoma derived (antibody, V domains shown)
VH: EVQLVESGGGLVKPGGSLKLSCAASGFTFSSYAMSWVRQTPEKRLEWVATISSGTNYTYYPDSVKGRFTISRDNAKNTLYLQMTSLRSEDTAMYYCARQGRYSWIAYWGQGTLVTVSA
VL: DIVLTQSPASLAVSLGQRATISCRASKSVSTSDYSYMHWNQQKPGQPPKLLIYLASNLESGVPARFSGSGSGTDFTLNIHPVEEEDAATYYCQHSRELLTFGAGTKLELK
B6: Ab10: mouse hybridoma derived anti-B7-H3 monoclonal antibodies (mAbs) (antibody, V domains shown)
VH: DVQLQESGPGLVKPSQSLSLTCTVTGYSITSDYAWNWIRQFPGNRLEWMGHINYSGITNYNPSLKSRISITRDTSKNQFFLQLYSVTTEDTATYFCARRSLFYYYGSSLYAMDYWGQGTSVTVSS
VL: DVVMTQSPFSLPVSLGDQASISCRSSQSLVHSNGNTYLHWYLQKPGQSPKLLIYKVSNRFSGVPDRFSGSGSGTDFTLKISRVEAEDLGVYFCSQSTHVPWTFGGGTKLEIK
B7: Ab2: mouse hybridoma derived anti-B7-H3 monoclonal antibodies (mAbs) (antibody, V domains shown)
VH: QVQLQQPGAELVKPGASVKLSCKASGYTFTSYWMHWVKQRPGQGLEWIGMIHPDSGTTNYNEKFRSKATLTVDKSSSTAYMQLSSLTSEDSAVYYCAVYYGSTYWYFDVWGTGTTVTVSS
VL: B6 VL with S7T, F9L, S20Y, S32I, L42R, V99F, W101F, G105S
B8: Ab3: murine anti-B7-H3 mAbs; mouse hybridoma derived (antibody, V domains shown)
VH: QVQLQQPGAELVKPGASVKLSCKASGYTFSSYWMHWVKQRPGQGLEWIGLIHPDSGSTNYNEMFKNKATLTVDRSSSTAYVQLSSLTSEDSAVYFCAGGGRLYFDYWGQGTTLTVSS
VL: B6 VL with S7T, F9L, N35D, H39R, S81T, W101Y
B9: Ab18: the murine monoclonal Ab18 (antibody, V domains shown)
VH: QVQLQQSAAELARPGASVKMSCKASGYSFTSYTIHWVKQRPGQGLEWIGYINPNSRNTDYNQKFKDETTLTADRSSSTAYMQLISLTSEDSAVYYCARYSGSTPYWYFDVWGAGTTVTVSS
VL: QIVLTQSPAILSASPGEKVTMTCRASSSVSYMNWYQQKPGSSPKPWIYATSNLASGVPARFSVSVSGTSHSLTISRVEAEDAATYYCQQWSSNPLTFGAGTKLELK
B10: Ab5: murine anti-B7-H3 mAbs; mouse hybridoma derived (antibody, V domains shown)
VH: QVQLQQPGDELVKPGASVKLSCKTSGYTFTTDWMHWVKQRPGQGLEWIGMIHPNSGTTNYNEKFKSKAALTVDKSSSTACMQLSSLTSEDSAVYYCARSYWKWYFDVWGTGTTVTVSS
VL: QIVLTQSPAIMSASLGEEITLTCSASSSVSYMHWYQQKSGTSPKLLIYSTSNLASGVPSRFSGSGSGTFYSLTISSVEAEDSADYYCHQWTSYMYTFGGGTKLEIK
B11: Ab8: murine anti-B7-H3 mAbs; mouse hybridoma derived (antibody, V domains shown)
VH: EVKLVESGGGLVKPGGSLKLSCAASGFTFSSYGMSWVRQTPEKRLEWVATISGGGNYTYCPDSVKGRFTISRDNAKNNLYLQMSSLRSEDTALYYCTRQRGYDYHYAMDFWGQGTSVTVSS
VL: DIQMTQSPASLSVSVGETVTITCRASENIYSNLAWHQQKQGKSPQLLVYAATNLADGVPSRFSGNGSDTQYSLKINSLQSEDFGSYFCQNFWGTSWTFGGGTKLEIK

tested on: cyno B7-H3; test: Biacore T200 SPR binding kinetics, mAb capture, soluble ECD of cyno B7-H3; parameters: species or system cynomolgus monkey; conditions: 1:1 binding model
Sequence (as listed by the source): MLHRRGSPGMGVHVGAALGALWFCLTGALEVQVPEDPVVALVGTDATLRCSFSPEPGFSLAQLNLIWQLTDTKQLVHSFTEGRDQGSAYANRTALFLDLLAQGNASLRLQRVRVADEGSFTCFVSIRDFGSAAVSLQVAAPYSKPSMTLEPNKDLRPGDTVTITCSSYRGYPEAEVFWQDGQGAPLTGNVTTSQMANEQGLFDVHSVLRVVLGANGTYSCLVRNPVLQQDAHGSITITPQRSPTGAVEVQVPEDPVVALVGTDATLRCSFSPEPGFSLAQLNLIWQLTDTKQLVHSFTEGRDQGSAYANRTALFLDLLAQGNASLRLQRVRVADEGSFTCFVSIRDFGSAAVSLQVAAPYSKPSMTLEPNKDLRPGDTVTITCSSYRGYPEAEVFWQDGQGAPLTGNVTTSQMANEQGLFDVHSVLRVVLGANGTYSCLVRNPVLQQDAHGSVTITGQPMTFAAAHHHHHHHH
Method: [The source words this procedure for another species and reports this species under the same test.] (§1) The binding affinity of the purified anti-B7-H3 monoclonal antibodies was determined by surface […]. […] The binding kinetics were derived from SPR measurements using a Biacore T200 instrument and a mAb capture approach (as described in the materials and methods below).
(§2) Biacore T200 SPR instruments were used to measure the binding kinetics of human B7-H3 (4Ig-B7-H3 variant) (analyte) binding to various mAbs (ligands). The assay format was Fc-based capture via immobilized anti-mouse (Fc) (Pierce 31170) or immobilized anti-human (Fc) (Pierce 31125). A standard amine coupling protocol was employed to immobilize the capture reagents via primary amines to the carboxy-methyl (CM) dextran surface of CM5 sensorchips (Biacore); capture antibodies were coupled to a level of approximately 5000RU. For binding kinetic measurements the assay buffer was HBS-EP+ (Biacore): 10 mM Hepes, pH7.4, 150 mM NaCl, 3 mM EDTA, 0.05% polysorbate 20. During the assay, all measurements were referenced against the capture surface alone. Each assay cycle consisted of the following steps: 1) Capture of ligand to approximately 50RU; 2) Analyte injection over both reference and test surface, 240 μL at 80 μL/min, after which the dissociation was monitored for 900 seconds at 80 μL/min; 3) Regeneration of capture surface with low pH glycine. For kinetic determinations analyte injections were 3-point, 9-fold dilution series of 900 nM, 100 nM and 11.11 nM, buffer only injections were included for secondary referencing. Data were processed and fit to a 1:1 binding model using Biacore T200 Evaluation Software to determine the binding kinetic rate constants, ka (on-rate) and kd (off-rate), and the equilibrium dissociation constant (affinity, KD).

Molecule | ka (1/Ms) cynoB7-H3 | kd (1/s) cynoB7-H3
B1 | 540000 M⁻¹ s⁻¹ | 0.00096 s⁻¹
B2 | 750000 M⁻¹ s⁻¹ | 0.0056 s⁻¹
B3 | 690000 M⁻¹ s⁻¹ | 0.003 s⁻¹
B4 | 440000 M⁻¹ s⁻¹ | 0.0037 s⁻¹
B5 | 55000 M⁻¹ s⁻¹ | 1e-05 s⁻¹
B6 | 200000 M⁻¹ s⁻¹ | 0.0042 s⁻¹
B7 | 230000 M⁻¹ s⁻¹ | 0.011 s⁻¹
B8 | 380000 M⁻¹ s⁻¹ | 0.01 s⁻¹
B9 | 240000 M⁻¹ s⁻¹ | 2.9e-05 s⁻¹
B10 | 1.4e+06 M⁻¹ s⁻¹ | 0.28 s⁻¹
B11 | 160000 M⁻¹ s⁻¹ | 0.00026 s⁻¹

target: T1, human B7-H3 (4Ig-B7-H3 variant); test: Biacore T200 SPR binding kinetics, mAb capture, soluble ECD of human B7-H3; conditions: 1:1 binding model
Method: as §1, §2

Molecule | ka (1/Ms) huB7-H3 | kd (1/s) huB7-H3
B1 | 690000 M⁻¹ s⁻¹ | 0.0011 s⁻¹
B2 | 140000 M⁻¹ s⁻¹ | 0.0032 s⁻¹
B3 | 110000 M⁻¹ s⁻¹ | 0.0014 s⁻¹
B4 | 330000 M⁻¹ s⁻¹ | 0.0058 s⁻¹
B5 | 38000 M⁻¹ s⁻¹ | 0.00025 s⁻¹
B6 | 41000 M⁻¹ s⁻¹ | 0.00019 s⁻¹
B7 | 120000 M⁻¹ s⁻¹ | 0.0029 s⁻¹
B8 | 520000 M⁻¹ s⁻¹ | 0.01 s⁻¹
B9 | 210000 M⁻¹ s⁻¹ | 3.6e-05 s⁻¹
B10 | 1.3e+06 M⁻¹ s⁻¹ | 0.012 s⁻¹
B11 | 58000 M⁻¹ s⁻¹ | 9.9e-05 s⁻¹
